Test results from the supplement of paper PMC10567573.

B1: TRIB1 (parent)
chain: EIGTSDQIVPEYQEDSDISSFFC

Variants of: B1
Assay: protein stability index of a GFP-peptide fusion (GPS, HEK-293T) (PSI 1-6); higher = more stable
Conditions: c terminus: native
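Also: lentivirally expressed fusions sorted by FACS into six bins by GFP to DsRed ratio, PSI derived from sequencing read proportions per bin multiplied by bin number.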

Going from EIGSSDQIVPEYQEDSDISSFFC [T4S] to EIGASDQIVPEYQEDSDISSFFC [T4A], the protein stability index rises from 2.87 to 3.23.

First: EIGCSDQIVPEYQEDSDISSFFC [T4C]
Second: EIGWSDQIVPEYQEDSDISSFFC [T4W]
The protein stability index of the first is lower: 2.33 for the first, 2.73 for the second.

Going from EIGLSDQIVPEYQEDSDISSFFC [T4L] to EIGFSDQIVPEYQEDSDISSFFC [T4F], the protein stability index rises from 2.77 to 3.18.

Compared with EIGPSDQIVPEYQEDSDISSFFC [T4P], EIGYSDQIVPEYQEDSDISSFFC [T4Y] is lower in protein stability index: 3.22 for the first, 3.1 for the second.

Compared with EIGNSDQIVPEYQEDSDISSFFC [T4N], EIGTSDQIVNEYQEDSDISSFFC [P10N] is higher in protein stability index: 2.39 for the first, 5.23 for the second.

First: EIGTSDQIVIEYQEDSDISSFFC [P10I]
Second: EIGTSDQIVCEYQEDSDISSFFC [P10C]
The protein stability index of the first is lower: 4.09 for the first, 5.2 for the second.

Compared with EIGTSDQIVHEYQEDSDISSFFC [P10H], EIGTSDQIVMEYQEDSDISSFFC [P10M] is lower in protein stability index: 5.41 for the first, 5.19 for the second.

Compared with EIGTSDQIVAEYQEDSDISSFFC [P10A], EIGTSDQIVEEYQEDSDISSFFC [P10E] is higher in protein stability index: 5.38 for the first, 5.54 for the second.

First: EIGTSDQIVGEYQEDSDISSFFC [P10G]
Second: EIGTSDQIVDEYQEDSDISSFFC [P10D]
The protein stability index of the first is lower: 4.82 for the first, 5.63 for the second.

Going from EIGTSDQIVKEYQEDSDISSFFC [P10K] to EIGTSDQIVFEYQEDSDISSFFC [P10F], the protein stability index falls from 5.56 to 3.77.

First: EIGTSDQIVLEYQEDSDISSFFC [P10L]
Second: EIGTSDHIVPEYQEDSDISSFFC [Q7H]
The protein stability index of the first is lower: 4.87 for the first, 5 for the second.

Compared with EIGTSDSIVPEYQEDSDISSFFC [Q7S], EIGTSDLIVPEYQEDSDISSFFC [Q7L] is lower in protein stability index: 5.2 for the first, 4.94 for the second.

Going from EIGTSDAIVPEYQEDSDISSFFC [Q7A] to EIGTSDPIVPEYQEDSDISSFFC [Q7P], the protein stability index rises from 5.23 to 5.3.

Going from EIGTSDTIVPEYQEDSDISSFFC [Q7T] to EIGTSDNIVPEYQEDSDISSFFC [Q7N], the protein stability index falls from 5.64 to 4.88.

Compared with EIGTSDEIVPEYQEDSDISSFFC [Q7E], EIGTSDIIVPEYQEDSDISSFFC [Q7I] is lower in protein stability index: 5.58 for the first, 4.95 for the second.

Compared with EIGTSDMIVPEYQEDSDISSFFC [Q7M], EIGTSDWIVPEYQEDSDISSFFC [Q7W] is lower in protein stability index: 4.79 for the first, 4 for the second.

First: EIGTSDRIVPEYQEDSDISSFFC [Q7R]
Second: EIGTSDVIVPEYQEDSDISSFFC [Q7V]
The protein stability index of the first is higher: 5.27 for the first, 5.02 for the second.

Going from EIGTSDDIVPEYQEDSDISSFFC [Q7D] to EIGTSDYIVPEYQEDSDISSFFC [Q7Y], the protein stability index falls from 5.53 to 4.43.

Compared with EIGTSDKIVPEYQEDSDISSFFC [Q7K], EIGTSDGIVPEYQEDSDISSFFC [Q7G] is higher in protein stability index: 5.04 for the first, 5.28 for the second.

First: EIGTSDCIVPEYQEDSDISSFFC [Q7C]
Second: EIGTSDFIVPEYQEDSDISSFFC [Q7F]
The protein stability index of the first is higher: 5.1 for the first, 3.76 for the second.

Compared with FIGTSDQIVPEYQEDSDISSFFC [E1F], HIGTSDQIVPEYQEDSDISSFFC [E1H] is lower in protein stability index: 2.15 for the first, 1.97 for the second.

First: MIGTSDQIVPEYQEDSDISSFFC [E1M]
Second: DIGTSDQIVPEYQEDSDISSFFC [E1D]
The protein stability index of the first is lower: 2.41 for the first, 2.57 for the second.

First: TIGTSDQIVPEYQEDSDISSFFC [E1T]
Second: YIGTSDQIVPEYQEDSDISSFFC [E1Y]
The protein stability index of the first is higher: 2.97 for the first, 2.11 for the second.

Compared with NIGTSDQIVPEYQEDSDISSFFC [E1N], PIGTSDQIVPEYQEDSDISSFFC [E1P] is higher in protein stability index: 2.32 for the first, 3.11 for the second.

First: KIGTSDQIVPEYQEDSDISSFFC [E1K]
Second: RIGTSDQIVPEYQEDSDISSFFC [E1R]
The protein stability index of the first is lower: 1.98 for the first, 2.77 for the second.

First: GIGTSDQIVPEYQEDSDISSFFC [E1G]
Second: WIGTSDQIVPEYQEDSDISSFFC [E1W]
The protein stability index of the first is higher: 2.58 for the first, 2.46 for the second.

First: LIGTSDQIVPEYQEDSDISSFFC [E1L]
Second: QIGTSDQIVPEYQEDSDISSFFC [E1Q]
The protein stability index of the first is lower: 2.21 for the first, 2.57 for the second.

First: SIGTSDQIVPEYQEDSDISSFFC [E1S]
Second: CIGTSDQIVPEYQEDSDISSFFC [E1C]
The protein stability index of the first is higher: 2.42 for the first, 2.38 for the second.

Compared with IIGTSDQIVPEYQEDSDISSFFC [E1I], VIGTSDQIVPEYQEDSDISSFFC [E1V] is higher in protein stability index: 1.9 for the first, 2.74 for the second.

Going from AIGTSDQIVPEYQEDSDISSFFC [E1A] to EIGTKDQIVPEYQEDSDISSFFC [S5K], the protein stability index rises from 2.7 to 3.47.

Going from EIGTIDQIVPEYQEDSDISSFFC [S5I] to EIGTGDQIVPEYQEDSDISSFFC [S5G], the protein stability index rises from 2.95 to 3.2.

First: EIGTPDQIVPEYQEDSDISSFFC [S5P]
Second: EIGTHDQIVPEYQEDSDISSFFC [S5H]
The protein stability index of the first is higher: 3.07 for the first, 3.06 for the second.

Going from EIGTNDQIVPEYQEDSDISSFFC [S5N] to EIGTFDQIVPEYQEDSDISSFFC [S5F], the protein stability index falls from 2.9 to 2.31.

Compared with EIGTEDQIVPEYQEDSDISSFFC [S5E], EIGTLDQIVPEYQEDSDISSFFC [S5L] is higher in protein stability index: 2.77 for the first, 2.95 for the second.

Compared with EIGTQDQIVPEYQEDSDISSFFC [S5Q], EIGTTDQIVPEYQEDSDISSFFC [S5T] is lower in protein stability index: 2.42 for the first, 2.2 for the second.

Compared with EIGTRDQIVPEYQEDSDISSFFC [S5R], EIGTCDQIVPEYQEDSDISSFFC [S5C] is lower in protein stability index: 2.77 for the first, 2.72 for the second.

Compared with EIGTYDQIVPEYQEDSDISSFFC [S5Y], EIGTWDQIVPEYQEDSDISSFFC [S5W] is higher in protein stability index: 1.73 for the first, 3.02 for the second.

First: EIGTMDQIVPEYQEDSDISSFFC [S5M]
Second: EIGTVDQIVPEYQEDSDISSFFC [S5V]
The protein stability index of the first is lower: 2.56 for the first, 3.15 for the second.

Compared with EIGTADQIVPEYQEDSDISSFFC [S5A], EIGTDDQIVPEYQEDSDISSFFC [S5D] is higher in protein stability index: 2.81 for the first, 2.97 for the second.

Compared with EIGTSDQFVPEYQEDSDISSFFC [I8F], EIGTSDQDVPEYQEDSDISSFFC [I8D] is lower in protein stability index: 5.17 for the first, 5.12 for the second.

First: EIGTSDQVVPEYQEDSDISSFFC [I8V]
Second: EIGTSDQTVPEYQEDSDISSFFC [I8T]
The protein stability index of the first is lower: 2.07 for the first, 4.29 for the second.

Going from EIGTSDQYVPEYQEDSDISSFFC [I8Y] to EIGTSDQPVPEYQEDSDISSFFC [I8P], the protein stability index rises from 5.08 to 5.36.

Compared with EIGTSDQNVPEYQEDSDISSFFC [I8N], EIGTSDQSVPEYQEDSDISSFFC [I8S] is lower in protein stability index: 5.32 for the first, 5.18 for the second.

Compared with EIGTSDQEVPEYQEDSDISSFFC [I8E], EIGTSDQHVPEYQEDSDISSFFC [I8H] is higher in protein stability index: 4.19 for the first, 5.15 for the second.

Going from EIGTSDQGVPEYQEDSDISSFFC [I8G] to EIGTSDQRVPEYQEDSDISSFFC [I8R], the protein stability index falls from 4.66 to 3.56.

Compared with EIGTSDQAVPEYQEDSDISSFFC [I8A], EIGTSDQKVPEYQEDSDISSFFC [I8K] is lower in protein stability index: 4.82 for the first, 4.03 for the second.

Compared with EIGTSDQQVPEYQEDSDISSFFC [I8Q], EIGTSDQWVPEYQEDSDISSFFC [I8W] is higher in protein stability index: 3.93 for the first, 4.69 for the second.

Going from EIGTSDQLVPEYQEDSDISSFFC [I8L] to EIGTSDQMVPEYQEDSDISSFFC [I8M], the protein stability index falls from 4.11 to 3.54.

In the case of EIGTSDQCVPEYQEDSDISSFFC [I8C], the protein stability index is reported as 3.62.
